Legend:
[1] = biological target: Recombinant Human DLL4 (human) (UniProt Q9NR61); experiment: Biacore SPR
[2] = biological target: human DLL-4 expressed on the surface of CHO-K1 cells (CHO-DLL-4 cells) (human) (UniProt Q9NR61); experiment: flow cytometry (HTFC) on CHO-K1 cells stably expressing DLL-4
[3] = biological target: human DLL-4 expressed on the surface of CHO-K1 cells (CHO-DLL-4 cells) (human) (UniProt Q9NR61); experiment: flow cytometry competition; 20 ug/ml FITC-rhNotch-1 on CHO-DLL-4 cells, increasing antibody concentrations

Ka [1] [M⁻¹]	Kd [1] [nM]	EC50 [2] [nM]	IC50 [3] [nM]	Substance
5.86e+08	1.71	–	–	21M18
–	–	1.7	1.72	anti-DLL-4 antibody OMP21M18 (Oncomed)
